From patent publication US20050287132A1, “Biliverdin reductase fragments and variants, and methods of using biliverdin reductase and such fragments and variants” (University of Rochester, priority 1999, published 2005)

Legend:
biliverdin reductase = experiment: Phosphorylation state of hBVR, SDS-PAGE immunoblot with anti-phospho antibodies; format: biochemical, human; conditions: protein purified from human kidney, anti-phospho mix
Method: Purified protein was subjected to 12.5% SDS-PAGE and the protein transferred to PVDF membrane. The membrane was subsequently treated as for Western blotting, using anti-phosphoserine, anti-phosphotyrosine or anti-phosphothreonine, at 2 μg/ml, or a mixture of all three antibodies as the primary antibody. The secondary antibody was goat anti-rabbit horseradish peroxidase at a 1:1000 dilution and detection was carried out using the ECL reagent kit (NEN Life Sciences) according to the manufacturer's instructions.

HeLa cells = experiment: Nuclear translocation of hemagglutinin-tagged BVR constructs after 8-bromo-cGMP, immunofluorescence; format: cell-based, human; conditions: 500 μM 8-bromo-cGMP, 5 min (up to 60 min)
Method: HeLa cells were grown on glass cover slips in DMEM medium containing 10% FBS under an atmosphere of 5% CO2. Cells were transfected with different BVR constructs using Lipofectamine, as described by the manufacturer. Briefly, cells were treated with a mixture of 2 μg DNA and 20 μl Lipofectamine for 5 h followed by the addition of DMEM medium. After 48 h, cells were treated with 500 μM 8-bromo-cGMP for 5, 20 or 60 min, fixed with 4% paraformaldehyde for 10 min. Cells were then rinsed with phosphate-buffered saline, incubated with 5% goat serum to block nonspecific binding sites and then with monoclonal anti hemagglutinin primary antibody and FITC conjugated secondary antibody. Cells were visualized by direct fluorescence microscopy.

[1] = Biliverdin reductase activity of E. coli expressed hBVR wild type and mutants (Example 1); format: biochemical, human
Method: SalI linkers are underlined in each primer. The products were digested with SalI and cloned into the vector pGEX 4T-2. Orientation was determined by restriction analysis and confirmed by sequencing. The ligation places the BVR coding region in frame with the GST protein of the vector. GST-BVR fusion proteins were purified from bacterial clones containing the plasmid, and grown overnight using a glutathione-sepharose 4B column (Pharmacia). The reductase portion of the fusion protein was released by thrombin protease treatment.
Activity was determined as previously described (Kutty et al., J. Biol. Chem. 256:3956-3962 (1981); Huang et al., J. Biol. Chem. 264:7844-7849 (1989), which are hereby incorporated by reference). Activity was determined in a 1 ml assay volume that contained 0.1 M Tris/HCl, pH 8.7 NADPH (100 μM), and biliverdin (5 μM). Reductase activity was also measured using NADH (1 mM) as the cofactor; in this case 0.1 M potassium phosphate pH 6.75, was substituted for Tris/HCl. SDS/PAGE was performed by the method of Laemmli, Nature 227:680-685 (1970), which is hereby incorporated by reference. Western blot analysis was performed using anti-serum to human kidney biliverdin reductase as previously described (Maines et al., Arch. Biochem. Biophys. 300:320-326 (1993), which is hereby incorporated by reference). The relative amounts of immunoreactive protein were determined by scanning the blot using a laser densitometer and comparing the area under the peak for each mutant with the wild type. The rate of activity was measured as the increase in 450 nm absorbance at 25° C. Specific activity is expressed as nmol bilirubin/min/ mg protein.

[2] = Biliverdin reductase catalytic activity of recombinant wild type and mutant hBVR (Example 2, FIG. 3); format: biochemical, human
Method: FIGS. 3A-C are graphs depicting the effects of mutation of Gly^17, Ser^149, and Lys^296 on BVR catalytic activity. Purified preparations of recombinant wild type and mutant BVR with substitution of Gly^17 (FIG. 3A), Ser^149 (FIG. 3B), or Lys^296 (FIG. 3C) with Ala were assessed for BVR activity at pH 6.5 using NADH as cofactor and at pH 8.7 with NADPH as cofactor. Values presented are in percent wild type activity for each pH. The specific activity of the wild type preparation was 1744 nmol bilirubin produced min^−1 mg^−1 at pH 6.5 and 1147 nmol bilirubin produced min^−1 mg^−1 at pH 8.7. Values presented are representative of 2-4 determinations.
GST-BVR fusion proteins were prepared as described in Example 1. Human kidney biliverdin reductase was purified to homogeneity as described by Maines et al., Arch. Biochem. Biophys. 300:320-326 (1993), which is hereby incorporated by reference. The purified reductase preparations were judged to be homogenous by SDS-PAGE. Protein concentration was determined by the method of Bradford, Anal. Biochem. 72:248-254 (1976), which is hereby incorporated by reference.
Activity was determined as previously described by Huang et al., J. Biol. Chem. 264:7844-7849 (1989), which is hereby incorporated by reference, using NADPH as the cofactor at pH 8.7 in 0.1 M […] or NADH at pH 6.5 in […]. The rate of activity was measured as the increase in 450 nm absorbance at 25° C. Specific activity is expressed in units/mg protein, where 1 unit catalyzes the formation of 1 nmol bilirubin/min.

B1: wild type: wild type human biliverdin reductase, SEQ. ID. No. 1; E. coli expressed or purified from human kidney (protein, listed as Homo sapiens)
chain: MNAEPERKFGVVVVGVGRAGSVRMRDLRNPHPSSAFLNLIGFVSRRELGSIDGVQQISLEDALSSQEVEVAYICSESSSHEDYIRQFLNAGKHVLVEYPMTLSLAAAQELWELAEQKGKVLHEEHVELLMEEFAFLKKEVVGKDLLKGSLLFTSDPLEEDRFGFPAFSGISRLTWLVSLFGELSLVSATLEERKEDQYMKMTVCLETEKKSPLSWIEEKGPGLKRNRYLSFHFKSGSLENVPNVGVNKNIFLKDQNIFVQKLLGQFSEKELAAEKKRILHCLGLAEEIQKYCCSRK
phosphorylation state (biliverdin reductase): phosphoprotein
nuclear localization in response to 8-bromo-cGMP (HeLa cells): strong punctate staining associated with the nucleus
Activity % pH 6.7 + NADH ([1]; Cys→Ala mutations, wild type = 100, pH 6.7, NADH): 100%
Activity % pH 8.7 + NADPH ([1]; Cys→Ala mutations, wild type = 100, pH 8.7, NADPH): 100%
Activity (nmol bilirubin/min/mg) pH 6.7 + NADH ([1]; pH 6.7, NADH cofactor, 25°): 2830 nmol bilirubin/min/mg
Activity (nmol bilirubin/min/mg) pH 8.7 + NADPH ([1]; pH 8.7, NADPH cofactor, 25°): 1338 nmol bilirubin/min/mg
specific activity ([2]; pH 6.5, NADH): 1744 nmol bilirubin produced min^−1 mg^−1
specific activity ([2]; pH 8.7, NADPH): 1147 nmol bilirubin produced min^−1 mg^−1
